This is an account of results in patent US20150299285A1.

Experiment [1] has as its target insulin receptor subtype A (human) (UniProt P06213). The experiment in a line: cell-based or functional assay.
Experiment [2] addresses insulin receptor subtype B (human) (UniProt P06213). As to the kind of experiment: cell-based or functional assay.
Experiment [3] has as its target insulin receptor subtype A (human) (UniProt P06213). The experiment in a line: cell-based or functional assay. The source holds these as a separate data set.
Experiment [4] concerns the target insulin receptor subtype B (human) (UniProt P06213). The experiment in a line: cell-based or functional assay. This is another data set of the same source.
Experiment [5] deals with insulin receptor subtype A (human) (UniProt P06213). The experiment in a line: IR-A Binding, competition with 125I-insulin.

Like-named read-outs stand apart in the source and are kept apart here.

“native IGF-1 (from UniProt P05019 49-118) (ligand)”: the EC50, Receptor Phosphorylation in experiment [1] was determined as 6.48 nM. In experiment [2], this substance displayed an EC50, Receptor Phosphorylation of 32.2 nM. For the same substance, in experiment [3], the EC50, IR-A Phosphorylation worked out at 29.2 nM; the EC50, Receptor Phosphorylation was found to be 10 nM; the EC50, phosphorylation (FIG. 18A) was found to be 2.24 nM; the IC50 (so named in p-1063), Phosphorylation at Insulin Receptor Subtype A is 146 nM. In experiment [4], this substance showed an EC50, Receptor Phosphorylation of 16.6 nM; an EC50, phosphorylation (FIG. 18B) of 32.4 nM; an IC50 (so named in p-1063), Phosphorylation at Insulin Receptor Subtype B of 19.7 nM. In experiment [5], the concentration for half-maximal inhibition (IC50) (as a rule, the midpoint of a concentration-inhibition curve) came out at 18.8 nM.
